Experimental data as given in the supplement of paper PMC10724198.
± gives the standard deviation of the averaged measurements.

Assays:
Assay in all cases: protein stability index of tFT-peptide fusion (C-terminal peptide) (PSI (0-1 scale)); higher = more stable (slower turnover)
[1] = test system: Saccharomyces cerevisiae; details: temperature: 30 C
Method: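 MPS profiling in S. cerevisiae of the yeast C-terminome library: the last 12 aa of each annotated ORF are fused to the C-terminus of a sfGFP-mCherry timer, after a GGGS linker. Cells are FACS-sorted into 8 mCherry/sfGFP bins and deep-sequenced. PSI runs from 0 (unstable) to 1 (stable); wild type and das1Δ backgrounds, two technical replicates each.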

[2] = test system: Saccharomyces cerevisiae; details: genetic background: wild type; temperature: 30 C
[3] = test system: Saccharomyces cerevisiae
Method: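 MPS profiling in S. cerevisiae of the tFT-X12 degron library: putative degron peptides plus stable controls, 12 aa, fused to the C-terminus of a sfGFP-mCherry timer. Cells are FACS-sorted into 8 mCherry/sfGFP bins and deep-sequenced. PSI runs from 0 (unstable) to 1 (stable). Backgrounds are wild type, das1Δ and doa10Δ at 30 °C, and wild type, das1Δ, cdc34-1 and cdc53-1 at 37 °C; 2-3 technical replicates each.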

[4] = genetic background: das1 deletion
[5] = genetic background: cdc34-1, temperature: 37 C
[6] = genetic background: cdc53-1, temperature: 37 C
[7] = genetic background: das1 deletion, temperature: 30 C
[8] = genetic background: das1 deletion, temperature: 37 C
[9] = genetic background: doa10 deletion, temperature: 30 C
[10] = genetic background: wild type, temperature: 30 C
[11] = genetic background: wild type, temperature: 37 C

| Sequence | protein stability index [1, 4] | protein stability index ([1]; genetic background: wild type) | protein stability index [2] | protein stability index [3, 5] | protein stability index [3, 6] | protein stability index [3, 7] | protein stability index [3, 8] | protein stability index [3, 9] | protein stability index [3, 10] | protein stability index [3, 11] |
| --- | --- | --- | --- | --- | --- | --- | --- | --- | --- | --- |
| YKLGPGEDTATK [DPL1 C-terminal 12 aa] | 0.707 ± 0.023 | 0.702 ± 0.032 |  |  |  |  |  |  |  |  |
| KWLWRELEESSL [OCA5 C-terminal 12 aa] | 0.745 ± 0.018 | 0.7234 ± 0.0014 |  |  |  |  |  |  |  |  |
| VHKFGWSLSFSP [POR2 C-terminal 12 aa] | 0.701 ± 0.017 | 0.681 ± 0.038 |  |  |  |  |  |  |  |  |
| APAEQTQGEPTK [BMH2 C-terminal 12 aa] | 0.71 ± 0.013 | 0.677 ± 0.012 |  |  |  |  |  |  |  |  |
| VAKAEKLAAEAN [ATP2 C-terminal 12 aa] | 0.684 ± 0.03 | 0.705 ± 0.022 |  |  |  |  |  |  |  |  |
| DIFDPVDFVSFF [OAF3 C-terminal 12 aa] | 0.772 ± 0.033 | 0.752 ± 0.034 |  |  |  |  |  |  |  |  |
| EAVYELAKMSLA [MYG1 C-terminal 12 aa] | 0.703 ± 0.025 | 0.6777 ± 0.0052 |  |  |  |  |  |  |  |  |
| AVVLQSIQFTSE [IML3 C-terminal 12 aa] | 0.621 ± 0.018 | 0.608 ± 0.024 |  |  |  |  |  |  |  |  |
| TPEDADEEEDDE [RPL22B C-terminal 12 aa] | 0.6921 ± 0.0011 | 0.655 ± 0.014 |  |  |  |  |  |  |  |  |
| HSRASVQSHPQH [DAL80 C-terminal 12 aa] | 0.7271 ± 0.0023 | 0.699 ± 0.03 |  |  |  |  |  |  |  |  |
| DIYNQLHMFGEK [IGD1 C-terminal 12 aa] | 0.663 ± 0.0086 | 0.688 ± 0.01 |  |  |  |  |  |  |  |  |
| NVPVSNGTTAAQ [UTP23 C-terminal 12 aa] | 0.695 ± 0.013 | 0.691 ± 0.025 |  |  |  |  |  |  |  |  |
| YTNLIASKVKKQ [YKL177W C-terminal 12 aa] | 0.714 ± 0.036 | 0.6504 ± 0.0044 |  |  |  |  |  |  |  |  |
| CMAWLSVLKTLF |  |  | 0.495 ± 0.04 | 0.709 ± 0.082 | 0.744 ± 0.023 | 0.63 ± 0.017 | 0.756 ± 0.037 | 0.387 ± 0.037 | 0.421 ± 0.012 | 0.615 ± 0.053 |
| MTLYSFSSALLA |  |  | 0.3535 ± 0.0027 | 0.413 ± 0.045 | 0.464 ± 0.013 | 0.316 ± 0.014 | 0.461 ± 0.002 | 0.27 ± 0.038 | 0.276 ± 0.016 | 0.423 ± 0.0074 |
| FKWVSRIRLLDA |  |  | 0.316 ± 0.027 | 0.485 ± 0.014 | 0.566 ± 0.049 | 0.51 ± 0.023 | 0.483 ± 0.0055 | 0.24 ± 0.028 | 0.246 ± 0.016 | 0.411 ± 0.017 |
| LFSVFSLVLFIF |  |  | 0.427 ± 0.091 | 0.338 ± 0.0079 | 0.413 ± 0.011 | 0.34 ± 0.029 | 0.501 ± 0.0086 | 0.316 ± 0.017 | 0.272 ± 0.023 | 0.454 ± 0.0073 |
| FCIYLCLSTSIT |  |  | 0.374 ± 0.084 | 0.0795 ± 0.0063 | 0.221 ± 0.0083 | 0.14 ± 0.036 | 0.306 ± 0.025 | 0.119 ± 0.0062 | 0.129 ± 0.027 | 0.247 ± 0.0029 |
| VRHPVVVVRRVI |  |  | 0.508 ± 0.055 | 0.663 ± 0.017 | 0.746 ± 0.0067 | 0.649 ± 0.035 | 0.70566 ± 0.00012 | 0.3516 ± 0.0032 | 0.411 ± 0.025 | 0.576 ± 0.0099 |
| GLVVVVRLQYSP |  |  | 0.404 ± 0.027 | 0.309 ± 0.027 | 0.424 ± 0.02 | 0.329 ± 0.017 | 0.458 ± 0.011 | 0.27482 ± 1.4e-06 | 0.299 ± 0.016 | 0.4415 ± 0.0014 |
| YHDKLRAIEKFF |  |  | 0.331 ± 0.065 | 0.669 ± 0.03 | 0.725 ± 0.0075 | 0.635 ± 0.018 | 0.74 ± 0.03 | 0.199 ± 0.019 | 0.219 ± 0.04 | 0.49 ± 0.0052 |
| FALPPSLLLLSA |  |  | 0.501 ± 0.026 | 0.544 ± 0.019 | 0.557 ± 0.013 | 0.442 ± 0.027 | 0.5917 ± 0.0017 | 0.418 ± 0.0085 | 0.449 ± 0.016 | 0.55962 ± 0.00044 |
